Laboratory results from article PMC10460399 (Nature Communications, 2023).
Values joined by “and” are separate entries in the source; they are usually repeats but may differ in a detail not shown here. Equal entries are not always repeated.

B1: DmDcr-2 mutant (D1217N/D1476N, DmDcr-2^DDNN) (enzyme, Drosophila melanogaster, UniProt A1ZAW0 1-1722, looked up)
chain: MEDVEIKPRGYQLRLVDHLTKSNGIVYLPTGSGKTFVAILVLKRFSQDFDKPIESGGKRALFMCNTVELARQQAMAVRRCTNFKVGFYVGEQGVDDWTRGMWSDEIKKNQVLVGTAQVFLDMVTQTYVALSSLSVVIIDECHHGTGHHPFREFMRLFTIANQTKLPRVVGLTGVLIKGNEITNVATKLKELEITYRGNIITVSDTKEMENVMLYATKPTEVMVSFPHQEQVLTVTRLISAEIEKFYVSLDLMNIGVQPIRRSKSLQCLRDPSKKSFVKQLFNDFLYQMKEYGIYAASIAIISLIVEFDIKRRQAETLSVKLMHRTALTLCEKIRHLLVQKLQDMTYDDDDDNVNTEEVIMNFSTPKVQRFLMSLKVSFADKDPKDICCLVFVERRYTCKCIYGLLLNYIQSTPELRNVLTPQFMVGRNNISPDFESVLERKWQKSAIQQFRDGNANLMICSSVLEEGIDVQACNHVFILDPVKTFNMYVQSKGRARTTEAKFVLFTADKEREKTIQQIYQYRKAHNDIAEYLKDRVLEKTEPELYEIKGHFQDDIDPFTNENGAVLLPNNALAILHRYCQTIPTDAFGFVIPWFHVLQEDERDRIFGVSAKGKHVISINMPVNCMLRDTIYSDPMDNVKTAKISAAFKACKVLYSLGELNERFVPKTLKERVASIADVHFEHWNKYGDSVTATVNKADKSKDRTYKTECPLEFYDALPRVGEICYAYEIFLEPQFESCEYTEHMYLNLQTPRNYAILLRNKLPRLAEMPLFSNQGKLHVRVANAPLEVIIQNSEQLELLHQFHGMVFRDILKIWHPFFVLDRRSKENSYLVVPLILGAGEQKCFDWELMTNFRRLPQSHGSNVQQREQQPAPRPEDFEGKIVTQWYANYDKPMLVTKVHRELTPLSYMEKNQQDKTYYEFTMSKYGNRIGDVVHKDKFMIEVRDLTEQLTFYVHNRGKFNAKSKAKMKVILIPELCFNFNFPGDLWLKLIFLPSILNRMYFLLHAEALRKRFNTYLNLHLLPFNGTDYMPRPLEIDYSLKRNVDPLGNVIPTEDIEEPKSLLEPMPTKSIEASVANLEITEFENPWQKYMEPVDLSRNLLSTYPVELDYYYHFSVGNVCEMNEMDFEDKEYWAKNQFHMPTGNIYGNRTPAKTNANVPALMPSKPTVRGKVKPLLILQKTVSKEHITPAEQGEFLAAITASSAADVFDMERLEILGNSFLKLSATLYLASKYSDWNEGTLTEVKSKLVSNRNLLFCLIDADIPKTLNTIQFTPRYTWLPPGISLPHNVLALWRENPEFAKIIGPHNLRDLALGDEESLVKGNCSDINYNRFVEGCRANGQSFYAGADFSSEVNFCVGLVTIPNKVIADTLEALLGVIVKNYGLQHAFKMLEYFKICRADIDKPLTQLLNLELGGKKMRANVNTTEIDGFLINHYYLEKNLGYTFKDRRYLLQALTHPSYPTNRITGSYQELEFIGNAILDFLISAYIFENNTKMNPGALTDLRSALVNNTTLACICVRHRLHFFILAENAKLSEIISKFVNFQESQGHRVTNYVRILLEEADVQPTPLDLDDELDMTELPHANKCISQEAEKGVPPKGEFNMSTNVDVPKALGDVLEALIAAVYLDCRDLQRTWEVIFNLFEPELQEFTRKVPINHIRQLVEHKHAKPVFSSPIVEGETVMVSCQFTCMEKTIKVYGFGSNKDQAKLSAAKHALQQLSKCDA
notes: Dicer-2 (DmDcr-2) of Drosophila melanogaster, full length, with D1217N/D1476N (no dicing activity, helicase activity kept); also called Dicer-2; source: sf9 cells (Bac-to-Bac baculovirus), co-expressed with R2D2, purified (Ni-NTA, Hitrap Q, 2nd Ni-NTA, SEC)
B2: Loqs-PD (Loquacious isoform D), full length (natural protein, Drosophila melanogaster, UniProt Q9VJY9-4 1-359, looked up)
chain: MDQENFHGSSLPQQLQNLHIQPQQASPNPVQTGFAPRRHYNNLVGLGNGNAVSGSPVKGAPLGQRHVKLKKEKISAQVAQLSQPGQLQLSDVGDPALAGGSGLQGGVGLMGVILPSDEALKFVSETDANGLAMKTPVSILQELLSRRGITPGYELVQIEGAIHEPTFRFRVSFKDKDTPFTAMGAGRSKKEAKHAAARALIDKLIGAQLPESPSSSAGPSVTGLTVAGSGGDGNANATGGGDASDKTVGNPIGWLQEMCMQRRWPPPSYETETEVGLPHERLFTIACSILNYREMGKGKSKKIAKRLAAHRMWMRLQETPIDSGKISDSICGELEGEVSIIQDIDRYEQVSKDFEFIKI
notes: Only a small segment of the C-terminus is seen in the maps; also called Loqs isoform D; source: Escherichia coli BL21 (DE3), purified (Ni-NTA, ULP1 cleavage, second Ni-NTA, SEC)
B3: 19-bp dsRNA (siRNA duplex) (dsRNA)
RNA 1: GAGACUUGGGCAAUGUGAAGU
RNA 2: GUCACAUUGCCCAAGUCUCUU
B4: 50-bp dsRNA (dsRNA)
RNA 1: GAGACUUGGGCAAUGUGACUGCUGAUCAGCAGUCACAUUGCCCAAGUCUCUU
RNA 2: B4 RNA 1

Assays:
[1] = target: the molecule itself; test: cryo-EM structure; DmDcr-2^DDNN/R2D2/Loqs-PD complex with 50-bp dsRNA 1:1, 25 °C for 2 h, diluted to 1 uM in SEC buffer with 5 mM ATP and 5 mM MgCl2
[2] = target: B1; test: as above; conditions: both partners purified
[3] = target: T1, DmDcr-2^DDNN/R2D2 complex (Drosophila melanogaster, UniProt A1ZAW0 1-1722; Q9VLW8 1-311, D1217N | D1476N); test: SEC; purified DmDcr-2^DDNN/R2D2 and Loqs-PD mixed at a molar ratio of 1:1.5, on ice for 1 h; Superose 6 10/300 Increase in SEC buffer (100 mM NaCl, 20 mM Tris-HCl pH 8.0, 1 mM DTT); conditions: both partners purified
T1 construct: Dicer-2 (DmDcr-2) of Drosophila melanogaster, full length, with D1217N/D1476N; as m1; R2D2 of Drosophila, full length; as m2; Complex formed beforehand, to which Loqs-PD was added; also called DmDcr-2/R2D2; source: sf9 cells (Bac-to-Bac baculovirus), co-expressed, purified (Ni-NTA, Hitrap Q, 2nd Ni-NTA, SEC)

[4] = target: T2, DmDcr-2 DDNN;R2D2;Loqs-PD (Drosophila melanogaster;Drosophila …, UniProt A1ZAW0;Q9VLW8;Q9VJY9-4 1-1722;1-311;1-359, D1217N;D1476N||); test: cryo-EM; ATP, Mg2+; Trimer state (EMD-34708); Cryo-EM sample buffer not in material; protein SEC buffer 100 mM NaCl, 20 mM Tris-HCl pH 8.0, 1 mM DTT; oligomers formed with ATP and Mg2+; conditions: protein: recombinant;recombinant;recombinant; tags: purified by Ni-NTA
[5] = target: T2, DmDcr-2 DDNN;R2D2;Loqs-PD; test: cryo-EM; ATP, Mg2+; Dimer state; Cryo-EM sample buffer not in material; protein SEC buffer 100 mM NaCl, 20 mM Tris-HCl pH 8.0, 1 mM DTT; oligomers formed with ATP and Mg2+; conditions: protein: recombinant;recombinant;recombinant; tags: purified by Ni-NTA

Question: With B1 as the binder, how does the “stoichiometry N” value [1] read?
Answer: 2 and 3

Question: Which results are given for B2?
Answer: binding result [2]: binds; binding result [3]: binds

Question: Does B3 bind [4]?
Answer: binds

Question: Does B4 bind [5]?
Answer: binds
